Experimental data published in paper PMC6346578.

Columns and labels:
[1] = target: T1, SACE_5754 (TetR family regulator) (Saccharopolyspora erythraea A226?) (UniProt A4FLL4); assay: DNase I footprinting; details: EMSA: 10 mM Tris pH 7.5, 5 mM MgCl2, 60 mM KCl, 10 mM DTT, 50 mM EDTA (so in the source), 10% glycerol, 30 C 10 min, 20 uL; 6% native PAGE, 1x TAE. Footprinting: …
T1 sequence: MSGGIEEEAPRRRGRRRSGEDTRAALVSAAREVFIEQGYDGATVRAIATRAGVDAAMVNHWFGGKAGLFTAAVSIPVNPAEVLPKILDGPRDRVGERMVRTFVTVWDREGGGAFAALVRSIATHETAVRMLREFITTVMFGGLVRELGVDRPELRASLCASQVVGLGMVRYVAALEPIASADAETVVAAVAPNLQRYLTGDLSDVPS

[2] = target: T1, SACE_5754 (TetR family regulator) (Saccharopolyspora erythraea A226?); assay: EMSA; details: EMSA: 10 mM Tris pH 7.5, 5 mM MgCl2, 60 mM KCl, 10 mM DTT, 50 mM EDTA (so in the source), 10% glycerol, 30 C 10 min, 20 uL; 6% native PAGE, 1x TAE. Footprinting: …

Row | Sequence | binding [1] | binding [2]
1 | GGTGGCTTCTGGCGTGCTCATAACGCGTTCAGCGTATCCAGTCGGCTTCCGCCCTTGACCGGCGAGTCCCGGCAGGGCACCCTGAAGTTATTCAACATGCGTTGAAAACTTGGAGGATCGCGATGGAGCGAACGACGTGTTGC (double strand) [P6148-6149] | binds | binds
2 | GGCGGGCAGGAAATCAACACTTGTTGAATTACGGTCGCGCACGCGCTCCGCGATCGCGCGGACACTTACCGCTTCGGGCGGAAATGCATTGCAAGCAAAGAAGATTGGGCCGTTCGGCGGCATCCGGGCCGAGTGGTCAAGCGCACAGAGAACTGAGTTGCCCGCGCCCGTCCGTGCGATGCATGCTTGCGTCCAGCAACTAGTTGGTTGCTGCAATCAAATCGGTTGCGCTCGCCGGGGG (double strand) [Probe 1] | – | binds
3 | TGCCCGAAAGGTAACCCCGCGGCGGGCAGGAAATCAACACTTGTTGAATTACGGTCGCGCACGCGCTCCGCGATCGCGCGGACACTTACCGCTTCGGGCGGAAATGCATTGCAAGCAAAGAAGATTGGGCCGTTCGGCGGCATCCGGGCCGAGTGGTCAAGCGCACAGAGAACTGAGTTGCCCGCGCCCGTCCGTGCGATGCATGCTTGCGTCCAGCAACTAGTTGGTTGCTGCAATCAAATCGGTTGCGCTCGCCGGGGG (double strand) [P0388-0389] | binds | binds
4 | CATCGTGCCCAGCCAGTCGAGGAGTGCGGTTTCGTCGGCCATGCCGGGAACTTCGTCGATGGTGGTCAACGTTCTCCTCGCGCAGCAGGTCGTTTCCACGTCGGCGAACACGCGTCGCGATCTTGAGCTTAGTCGCGCGCCGGACGGGGTGTCGAGACTTCCGCGGTGGCGGTGGGAACAGTGAGCACGGCGTCGAACGCGTCGCGCAGCGGCGTCCGCATCCACGTGCTCTGGGAGCGGATCCGGTCC (double strand) [PeryK] | – | no binding
5 | TCACCACCTGAAACCGCCACCGTTTTCCCGGAATCCGGCCACCGGAACCGGACCGGCCGAAATGGACATTCCGCCACGGTGCCGCGGGCGCCACCCGCACGCACGTTGAATTCAACACATGTTCAACAGCGTCGGAGGCGGGGATAATCGAACCCTGAGCGCCCGCCGAGCGTTCGCCACGGCCGCCATCGTCCGCGTGAGGAACCCATGACCAAGCA (double strand) [P3599] | binds | binds
6 | CGGACCGGAGTTCGAGGTACGCGGCTTGCAGGTCCAGGAAGGGGACGTCCATGCGAGTGTCCGTTCGAGTGGCGGCTTGCGCCCGATGCTAGTCGCGGTTGATCGGCGATCGCAGGTGCACGCGGTCGATCTTGACGGCTGGCGAGAGGTGCGGGGAGGATCTGACCGACGCGGTCCACACGTGGCACCGCGATGCTGTTGTGGGCTGGACAATCGTGCCGGTTGGTAGGATCCAGCGGTGAGCAGTTCGGACGAGCAGCCGCGCCCGCGTCGCCGCAACCAGGATCGGCAGCAC (double strand) [PeryCI-ermE] | – | no binding
7 | CTGTGCAGTACCTGGAGGGCGGACCCTCCGGACGCGGGTTGTTCGTCGGTGTGCGCGGATGACCCGTGCGTTCGCGTTTTCCGTTCCTGGCACAGGTGATCCGCTCCACGGGCCCTTTCCCCGCCGTGACCGGACCCTTACAGTGAGTGCGGGTCTTGATCGACAACGCCCGGCGGCAGCAAGCGGAGCCGTCGACGACACCGCAGGGAGAGTCGATGGGTGATCGGACCGGCGACCGGACGATTCCGGAATCCTCGCAGACCGCAACGCGTTTCCTGCTCGGC (double strand) [PeryBVI] | – | no binding
8 | TCGGCGCCTCCTCCTCGATGCCACCGCTCACACCGCCATCCTCGCTGTCGGCCGCTTCGGGGTGCAAAGCCGGGCTGCGCGCGGCACCCGCCCTGGCGGACGGCACAATTGGGGCATGGTGGGCGGCGACATCGGCAAGATCAGTC (double strand) [P5753-5754] | – | no binding
